Results published in patent US20220251194A1 (Merck Sharp & Dohme, published 2022).
Where a chain is given by its changes, count along the chain named. Names and notes keep the numbering of the source.

B1: Fab 098 (Fab, V domains shown)
VH: EVQLVQSGAEVKKPGASVKVSCKASGYTFTSYYLYWVRQAPGQGLEWIGGVNPSNGGTNFNEKFKSRVTLTVDTSISTAYMELSRLRSDDTAVYYCTRRLSHYDGGFDYWGQGTTVTVSS
VL: DIVMTQTPLSLSVTPGQPASISCRASKSVSTSGFSYLHWYLQKPGQPPQLLIFLGKFRESGVPDRFSGSGSGTDFTLKISRVEAEDVGVYYCQHSWELPLTFGQGTKLEIKR
notes: also called Fab98
B2: Fab 133 (Fab, V domains shown)
VH: B1 VH with S31Q, L34Y, A92S, L100D, H102N
VL: B1 VL with K56F, F57Y, E59T, Q93S, H94Q, S95M, W96A, E97D
B3: Fab 100 (Fab, V domains shown)
VH: B1 VH
VL: B1 VL with G55S, F57Y, E59S, Q93S, H94Q, S95A, W96Y, E97H
B4: Fab 104 (Fab, V domains shown)
VH: B1 VH
VL: B1 VL with K56T, F57H, R58S, E59V
B5: Fab 103 (Fab, V domains shown)
VH: B1 VH
VL: B1 VL with K56R, F57Y, R58L, E59Q
B6: Fab 139 (Fab, V domains shown)
VH: B1 VH with S31Q, L34Y, A92S, L100D, H102N
VL: B1 VL with G55S, E59R
B7: Fab 099 (Fab, V domains shown)
VH: B1 VH
VL: B1 VL with K56T, F57H, E59A
B8: Fab 101 (Fab, V domains shown)
VH: B1 VH
VL: B1 VL with F57Y, R58G, E59A, Q93A, H94Q, S95A, W96T, E97Q
B9: Fab 102 (Fab, V domains shown)
VH: B1 VH
VL: B1 VL with K56H, R58A, E59S
B10: Fab 128 (Fab, V domains shown)
VH: B1 VH with S31Q, L34Y, A92S, L100D, H102N
VL: B1 VL with K56R, F57H, E59A
B11: Fab 138 (Fab, V domains shown)
VH: B1 VH with S31Q, L34T, V51I, N52E, S54N, N55R, L100D, H102N
VL: B1 VL with G55A, K56S, F57N, R58L, Q93A, H94Q, S95T, W96F
B12: Humanized 08A IgG4 S61N (lot 98AIO) (antibody)
heavy: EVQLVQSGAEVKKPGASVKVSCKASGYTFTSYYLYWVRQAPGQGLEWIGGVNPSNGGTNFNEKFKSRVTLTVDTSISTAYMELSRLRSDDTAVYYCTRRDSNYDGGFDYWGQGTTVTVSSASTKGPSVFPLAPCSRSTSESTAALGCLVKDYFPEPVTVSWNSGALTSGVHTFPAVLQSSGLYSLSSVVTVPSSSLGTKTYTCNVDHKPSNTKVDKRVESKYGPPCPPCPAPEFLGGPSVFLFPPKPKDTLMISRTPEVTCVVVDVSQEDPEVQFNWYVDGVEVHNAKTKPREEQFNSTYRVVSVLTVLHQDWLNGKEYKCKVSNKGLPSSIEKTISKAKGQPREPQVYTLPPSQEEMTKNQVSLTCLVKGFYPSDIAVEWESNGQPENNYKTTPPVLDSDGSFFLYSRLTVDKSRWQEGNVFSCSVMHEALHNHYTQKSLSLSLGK
light: DIVMTQTPLSLSVTPGQPASISCRASKSVSTSGFSYLHWYLQKPGQPPQLLIFLASNLESGVPDRFSGSGSGTDFTLKISRVEAEDVGVYYCQHSWELPLTFGQGTKLEIKRTVAAPSVFIFPPSDEQLKSGTASVVCLLNNFYPREAKVQWKVDNALQSGNSQESVTEQDSKDSTYSLSSTLTLSKADYEKHKVYACEVTHQGLSSPVTKSFNRGEC
notes: IgG4 S228P / kappa; also called Humanized x [PD-1_H] mAb (08A/HuPD1A-11 S61N S228P corrected) IgG4 / Kappa
B13: Humanized 08A IgG4 Fab 098 G56A (antibody, V domains shown)
VH: B1 VH with G56A, N61S
VL: B1 VL with G55A, K56S, F57N, R58L
notes: IgG4 S228P / kappa; also called 90AVZ
B14: Humanized 08A IgG4 G56A (antibody, V domains shown)
VH: B1 VH with G56A, N61S, L100D, H102N
VL: B1 VL with G55A, K56S, F57N, R58L
notes: IgG4 S228P / kappa; also called 89AVZ; Humanized x [PD-1_H] mAb (08A/HuPD1A-11 G56A) IgG4 S228P / Kappa
B15: Humanized 08A IgG4 S61N N55E (antibody, V domains shown)
VH: B1 VH with N55E, L100D, H102N
VL: B1 VL with G55A, K56S, F57N, R58L
notes: IgG4 S228P / kappa; also called 50AQK; Humanized x [PD-1_H] mAb (08A/HuPD1A-11 N55E S228P) IgG4 / Kappa
B16: Humanized 08A IgG4 (antibody, V domains shown)
VH: B1 VH with N61S, L100D, H102N
VL: B1 VL with G55A, K56S, F57N, R58L
notes: IgG4 S228P / kappa; also called 73AGG; Humanized x [PD-1_H] mAb (08A/HuPD1A-11 S228P) IgG4 / Kappa
B17: Humanized 08A IgG4 S61N (lot 67AGG) (antibody)
heavy: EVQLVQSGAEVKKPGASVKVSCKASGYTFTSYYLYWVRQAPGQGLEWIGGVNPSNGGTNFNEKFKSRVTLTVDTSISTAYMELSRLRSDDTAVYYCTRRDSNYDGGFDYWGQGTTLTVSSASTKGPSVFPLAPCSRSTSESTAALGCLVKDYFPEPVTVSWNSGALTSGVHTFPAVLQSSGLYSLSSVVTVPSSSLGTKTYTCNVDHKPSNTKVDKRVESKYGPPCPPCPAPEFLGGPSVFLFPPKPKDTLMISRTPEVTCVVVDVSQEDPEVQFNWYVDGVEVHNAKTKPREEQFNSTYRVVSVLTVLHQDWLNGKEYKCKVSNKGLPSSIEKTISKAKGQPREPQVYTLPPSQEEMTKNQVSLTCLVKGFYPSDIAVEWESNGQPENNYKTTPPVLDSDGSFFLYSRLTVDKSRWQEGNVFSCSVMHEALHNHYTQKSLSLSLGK
light: B12 light
notes: IgG4 S228P / kappa; Differs from lot 98AIO by an HFR4 mutation; also called Humanized x [PD-1_H] mAb (08A/HuPD1A-11 S61N WT) S228P IgG4 / Kappa, with HFR4 mutation
B18: Mouse 09A (antibody, mouse IgG1, kappa, V domains shown)
VH: QVQLQQPGAELVKPGTSVKLSCKASGYTFTNYYMYWVKQRPGQGLEWIGGINPSNGGTNFNEKFKNKATLTVDSSSSTTYMQLSSLTSEDSAVYYCTRRDYRFDMGFDYWGQGTTLTVSS
VL: DIVLTQSPASLAVSLGQRAAISCRASKGVSTSGYSYLHWYQQKPGQSPKLLIYLASYLESGVPARFSGSGSGTDFTLNIHPVEEEDAATYYCQHSRDLPLTFGTGTKLELKR
notes: Mouse IgG1 / kappa; also called 03AFN; Mouse x [PD-1_H] mAb (clone 09A) IgG1 / Kappa
B19: Mouse 08A (REF) (antibody, mouse IgG1, kappa, V domains shown)
VH: QVQLQQPGAELVKPGASVKLSCKASGYTFTSYYLYWMKQRPGQGLEWIGGVNPSNGGTNFSEKFKSKATLTVDKSSSTAYMQLSSLTSEDSAVYYCTRRDSNYDGGFDYWGQGTTLTVSS
VL: B18 VL with A9T, A20T, G28S, Y34F, S47P, Y53F, Y57N, R96W, D97E, T104A
notes: Mouse IgG1 / kappa; also called 09AFF; parental mouse 08A antibody
B20: Mouse 08A N59Q (antibody, mouse IgG1, kappa, V domains shown)
VH: B19 VH with N59Q
VL: B18 VL with A9T, A20T, G28S, Y34F, S47P, Y53F, Y57N, R96W, D97E, T104A
notes: Mouse IgG1 / kappa; also called 38AFL; Mouse x [PD-1_H] mAb (Clone 1.08 N59Q) IgG1 / Kappa
B21: Mouse 08A N59E (antibody, mouse IgG1, kappa, V domains shown)
VH: B19 VH with N59E
VL: B18 VL with A9T, A20T, G28S, Y34F, S47P, Y53F, Y57N, R96W, D97E, T104A
notes: Mouse IgG1 / kappa; also called 39AFL; Mouse x [PD-1_H] mAb (Clone 1.08 N59E) IgG1 / Kappa
B22: Mouse 08A N59A (antibody, mouse IgG1, kappa, V domains shown)
VH: B19 VH with N59A
VL: B18 VL with A9T, A20T, G28S, Y34F, S47P, Y53F, Y57N, R96W, D97E, T104A
notes: Mouse IgG1 / kappa; also called 80AFH; Mouse x [PD-1_H] mAb (Clone 1.08 N59A) IgG1 / Kappa

biological target: T1, recombinant human or cyno PD-1 (immobilized onto CM5 chip, Example 1) (human or cyno ( which was …, UniProt Q15116 25-167, limits assumed)); assay: SPR (Biacore T200), PD-1 immobilized on CM5 chip, Fab as analyte
T1 construct: also called antigen
Description: Immobilization of recombinant human or cyno PD-1 onto CM5 chip: A CM5 sensor chip was activated in FC2 by 7-min. injection (10 μl/min.) of freshly prepared 1:1 50 mM NHS: 200 mM EDC. PD-1 at a concentration of 0.2 μg/ml in 10 mM sodium acetate buffer pH 5.0 was injected onto the activated chip at 5 μl/min. (HBS-EP running buffer: 10 mM HEPES, 150 mM NaCl, 3.4 mM EDTA, 0.005% surfactant P20, pH 7.4) for 120 seconds. The remaining active coupling sites were blocked with 7 min. injection of 1M ethanolamine at 10 μl/min.
Binding kinetics measurement: Various concentrations of the Fabs were injected with a flow rate of 30 μl/min for 180 seconds(s) during the association phase. The dissociation of bound antibody was monitored by flowing HBS-EP buffer over the chip surface for 600 seconds. At the end of each cycle, the sensor surfaces were regenerated by injecting regeneration buffer (10 mM glycine buffer with pH 1.7) for 180 seconds. After sensograms were corrected for signals from a reference flow, kinetics were calculated with BIACORE T 200 evaluation software ver.1.0 (Biacore, GE, USA).

T1 sequence (Q15116 25-167 limits assumed): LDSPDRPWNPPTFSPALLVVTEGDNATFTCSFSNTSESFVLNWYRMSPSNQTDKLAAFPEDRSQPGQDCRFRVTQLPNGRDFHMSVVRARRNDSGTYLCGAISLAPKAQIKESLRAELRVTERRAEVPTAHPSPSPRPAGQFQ

Row | Binder | Kd
1 | B1 | 31 pM
2 | B2 | 31 pM
3 | B3 | 24 pM
4 | B4 | 52 pM
5 | B5 | 28 pM
6 | B6 | 14 pM
7 | B7 | 34 pM
8 | B8 | 29 pM
9 | B9 | 42 pM
10 | B10 | 15 pM
11 | B11 | 66 pM

biological target: T2, polyhistidine-tagged human PD-1 (hPD1-His, 98AFK) (human, UniProt Q15116 25-167, limits assumed); assay: SPR solution affinity; reference Humanized 08A IgG4 S61N (98AIO)
T2 construct: also called human PD1-His; Human PD-1-His
Description: (§1) The titration series were incubated for 16-24 hours to reach equilibrium at room temperature. The unbound sites were measured using a BIAcore chip immobilized with antigen in a competition mode where SPR signal detected corresponded to unbound antibody.
(§2) The titration series following >16 hr. incubation were injected over the sensor chip immobilized with hPD1-His (above). Free, unbound antibodies concentrations were measured as proportional to RU after 120 seconds (for 500 pM mAb series) or 400 seconds (for 100 pM mAb series) of injection at 10 μL/min. After each cycle, surfaces were regenerated with a 30 second injection of 1:1 mixture of 3M MgCl₂ and pH 2.0 10 mM glycine at 30 μL/min.

T2 sequence (Q15116 25-167 limits assumed): as above

Row | Binder | KD (REF)/KD
12 | B12 | 1
13 | B13 | 1.7
14 | B14 | 0.6

biological target: T2, polyhistidine-tagged human PD-1 …; assay: SPR (Biacore T200), mAb captured on anti-Fc chip, hPD1-His as analyte
Description: (§3) A surface plasmon resonance (SPR)-based assay utilizing capture mode was used to determine the binding kinetics and affinities of anti-PD-1 antibodies against polyhistidine-tagged human PD-1 (hPD1-His, 98AFK). Following manufacture instructions, a series S sensor chip CM5 (GE Healthcare, BR100530) was activated using an amine-coupling kit (GE Healthcare, BR100050). Either human capture kit (anti-human Fc, 25 μg/mL, GE Healthcare, BR100839) or mouse capture kit (anti-mouse Fc, 30 μg/mL, GE Healthcare, BR100838) antibody diluted in the supplied pH 5.0, 10 mM sodium acetate buffer was immobilized onto the activated surface for 7 minutes. After immobilization, surfaces were deactivated with 1M ethanolamine/HCl (pH 8.5) for 7 minutes.
(§4) Binding kinetics were measured on a biacore T200 in HBS-EP+ (0.01 M HEPES pH 7.4, 0.15 M NaCl, 3 mM EDTA, 0.05% v/v Surfactant P20) running buffer at 25° C. Antibodies were captured either on mouse or human Fc capture surfaces at 10 μL/min flow rate. Antibodies were captured on flow cells 2, 3 and 4. Flow cell 1 was used as a reference with no antibody captured. A 6-point, 2-fold serial dilutions of the analyte 98AFK (hPD1-His), starting at 20 nM, were prepared in the running buffer (HBS-EP+). Two buffer blanks were included for double referencing. Titration series were injected for 3 minutes at 50 μl/min followed by 600 seconds of dissociation. After each cycle, surfaces were regenerated with a 30 second injection of 3M MgCl₂ at […] on the anti-human Fc chip or 180 seconds of 10 mM Glycine pH 1.7 at 10 μl/min on the anti-mouse Fc chip.
(§5) Sensorgram processing and data analysis were performed with Biacore T200 Evaluation Software Version 2.0.4 (GE Healthcare). […] Processed curves were globally fitted to a 1:1 binding model to determine the association rate constant, kₒₙ (M⁻¹s⁻¹, where “M” equals molar and “s” equals seconds) and the dissociation rate constant, koff (s⁻¹). These rate constants were used to calculate the equilibrium dissociation constant, KD (M)=koff/kₒₙ.

Row | Binder | Kd
15 | B12 | 54 pM
16 | B13 | 79 pM
17 | B14 | 100 pM
18 | B15 | 300 pM
19 | B16 | 140 pM
20 | B17 | 45 pM
21 | B18 | 460 pM
22 | B19 | 240 pM
23 | B20 | 9600 pM
24 | B21 | 5900 pM
25 | B22 | 590 pM

biological target: T2, polyhistidine-tagged human PD-1 …; assay: SPR (Biacore T200), mAb captured on anti-Fc chip; reference Mouse 08A
Description: as §3, §4, §5

Row | Binder | KD (REF)/KD
26 | B12 | 4.4
27 | B13 | 3
28 | B14 | 2.4
29 | B15 | 0.8
30 | B16 | 1.7
31 | B17 | 5.2
32 | B18 | 0.5
33 | B19 | 1
34 | B20 | 0.04
35 | B21 | 0.03
36 | B22 | 0.4

biological target: T2, polyhistidine-tagged human PD-1 …; assay: SPR solution affinity (Biacore T200, competition mode, equilibrium titration)
Description: as §1, §2

Row | Binder | Kd
37 | B12 | 33 pM
38 | B13 | 19 pM
39 | B14 | 56 pM
